# In patent publication US20140140998:
# T1: GST-TβRI intracellular domain fusion protein
# T1 chain: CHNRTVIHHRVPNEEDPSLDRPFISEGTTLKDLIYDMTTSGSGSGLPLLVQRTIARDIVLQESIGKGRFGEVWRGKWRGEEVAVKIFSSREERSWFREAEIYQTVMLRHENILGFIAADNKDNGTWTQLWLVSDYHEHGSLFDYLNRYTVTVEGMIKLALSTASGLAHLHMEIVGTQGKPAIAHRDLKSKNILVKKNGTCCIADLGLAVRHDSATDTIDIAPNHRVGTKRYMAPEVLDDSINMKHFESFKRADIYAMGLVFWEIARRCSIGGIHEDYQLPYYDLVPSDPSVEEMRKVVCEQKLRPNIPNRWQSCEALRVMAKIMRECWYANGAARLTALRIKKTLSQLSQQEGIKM
# T2: type I receptor of transforming growth factor beta (TβRI), endogenous, full length
# T2 chain: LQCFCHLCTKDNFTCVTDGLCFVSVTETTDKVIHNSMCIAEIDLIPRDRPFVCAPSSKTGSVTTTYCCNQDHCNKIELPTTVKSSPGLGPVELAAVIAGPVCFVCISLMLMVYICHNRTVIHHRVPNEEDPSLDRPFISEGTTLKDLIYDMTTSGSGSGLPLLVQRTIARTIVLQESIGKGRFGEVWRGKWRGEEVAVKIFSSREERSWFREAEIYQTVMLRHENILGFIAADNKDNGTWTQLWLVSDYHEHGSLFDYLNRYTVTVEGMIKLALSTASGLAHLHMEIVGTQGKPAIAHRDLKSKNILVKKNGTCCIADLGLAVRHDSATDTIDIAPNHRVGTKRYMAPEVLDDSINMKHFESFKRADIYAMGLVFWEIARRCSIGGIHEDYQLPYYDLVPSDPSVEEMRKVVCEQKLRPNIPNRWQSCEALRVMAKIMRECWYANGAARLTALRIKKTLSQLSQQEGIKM
# B1: recombinant glutathione-S-transferase-tagged TRAF6 (GST-TRAF6) fusion protein (protein)
# chain: MSLLNCENSCGSSQSESDCCVAMASSCSAVTKDDSVGGTASTGNLSSSFMEEIQGYDVEFDPPLESKYECPICLMALREAVQTPCGHRFCKACIIKSIRDAGHKCPVDNEILLENQLFPDNFAKREILSLMVKCPNEGCLHKMELRHLEDHQAHCEFALMDCPQCQRPFQKFHINIHILKDCPRRQVSCDNCAASMAFEDKEIHDQNCPLANVICEYCNTILIREQMPNHYDLDCPTAPIPCTFSTFGCHEKMQRNHLARHLQENTQSHMRMLAQAVHSLSVIPDSGYISEVRNFQETIHQLEGRLVRQDHQIRELTAKMETQSMYVSELKRTIRTLEDKVAEIEAQQCNGIYIWKIGNFGMHLKCQEEEKPVVIHSPGFYTGKPGYKLCMRLHLQLPTAQRCANYISLFVHTMQGEYDSHLPWPFQGTIRLTILDQSEAPVRQNHEEIMDAKPELLAFQRPTIPRNPKGFGYVTFMHLEALRQRTFIKDDTLLVRCEVSTRFDMGSLRREGFQPRSTDAGV
# B2: tumor necrosis factor receptor-associated factor 6 (TRAF6), endogenous (protein)
# chain: MSLLNCENSCGSSQSESDCCVAMASSCSAVTKDDSVGGTASTGNLSSSFMEEIQGYDVEFDPPLESKYECPICLMALREAVQTPCGHRFCKACIIKSIRDAGHKCPVDNEILLENQLFPDNFAKREILSLMVKCPNEGCLHKMELRHLEDHQAHCEFALMDCPQCQRPFQKFHINIHILKDCPRRQVSCDNCAASMAFEDKEIHDQNCPLANVICEYCNTILIREQMPNHYDLDCPTAPIPCTFSTFGCHEKMQRNHLARHLQENTQSHMRMLAQAVHSLSVIPDSGYISEVRNFQETIHQLEGRLVRQDHQIRELTAKMETQSMYVSELKRTIRTLEDKVAEIEAQQCNGIYIWKIGNFGMHLKCQEEEKPVVIHSPGFYTGKPGYKLCMRLHLQLPTAQRCANYISLFVHTMQGEYDSHLPWPFQGTIRLTILDQSEAPVRQNHEEIMDAKPELLAFQRPTIPRNPKGFGYVTFMHLEALRQRTFIKDDTLLVRCEVSTRFDMGSLRREGFQPRSTDAGV
# Experiments:
# [1] = target: T1, GST-TβRI intracellular domain fusion …
# [2] = target: T2, type I receptor of transforming growth …
Protein,polyubiquitination of TβRI in an in vitro ubiquitination assay [1],Lys63-linked polyubiquitination of TβRI and formation of the TβRI ICD after TRAF6 siRNA [2]
B1,TRAF6 was shown to induce the polyubiquitination of TβRI in an in vitro ubiquitination assay,–
B2,–,a knock-down of endogenous TRAF6 in PC-3U cells with an anti-TRAF6 siRNA also resulted in loss of both Lys63-linked polyubiquitination in TβRI and the formation of the TβRI ICD in response to TGFβ stimulation
